To fix the notation:
B1: TPR t1 (parent)
chain: GACCAAUCUGCCCUCAGAGCUCGAGAACAUCUUCGGAUGCAGAGGAGGCAGGCUUCGGUGGCGCGAUAGCGCCAACGUCCUCAACCUCCAAUGCAUCCCACCACAUGAUGAUGCCUGAAGAGCCUUGGUUUUUUG

Variants of B1 are the subject of this data set. In words: polymerase ribozyme fitness, log enrichment relative to wild type (log ratio); higher = more active; in vitro selection for triplet polymerase activity. Summed up: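 Mutant libraries were PCR-built and transcribed for each subunit of a heterodimeric triplet polymerase ribozyme and selected for one round in triplicate at −7 °C, frozen, before gel excision of extended constructs and streptavidin-bead capture. Input and output libraries were Illumina-sequenced, keeping genotypes with ≥10 input reads and ≥1 read per output. Fitness is a logarithmic ratio of genotype to wild-type enrichment, in base 2, using inverse-variance-weighted replicate averages.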
For the variant C70A C88U, the “polymerase ribozyme fitness (log ratio)” value was -1.26.
With G71A U78G A84U, the “polymerase ribozyme fitness (log ratio)” value was -2.58.
The value for C72A C79A C94A G127C was -2.85; that for C70A G128U was -3.9.
Under G71U U129A stands -1.8.
The value for G71U U129C was -0.505; that for C70G U106A was -2.52; that for C72A C114A G122A was -2.11.
With G71A C115A C123U, the “polymerase ribozyme fitness (log ratio)” value is -2.76.
Under G71A C79G G127A stands -3.33.
For G71A C94G, the “polymerase ribozyme fitness (log ratio)” value was -2.57.
Under C70U C72A C85A stands -2.03; under C72A C101A, -1.15; under G69U C114A, -0.78.
Under C72G C94G G113A G122U stands -3.41.
The value for C70U U96G was -1.09; that for C70G G117C was -5.07.
Consider C70A U125A G128A, for which the “polymerase ribozyme fitness (log ratio)” value is -3.04.
For the variant G71C U133A, the “polymerase ribozyme fitness (log ratio)” value was -0.636.
As to C70U G77C, the “polymerase ribozyme fitness (log ratio)” value was -1.78.
In the case of G69U C104U, the “polymerase ribozyme fitness (log ratio)” value is 0.349.
Under C72G U81A U130A stands -1.44.
The value for G71U U132A was 0.382.
Under C72G G93C stands -1.92.
On to G71A U92A A121U, for which the “polymerase ribozyme fitness (log ratio)” value was -2.31.
Take G71A G110U: the “polymerase ribozyme fitness (log ratio)” value was -2.36.
Under G71U C99U G120U stands -4.26; under C72U A83U, -1.1; under C70U G113U, -2.81.
The value for C72G C123G was 1.26.
Under G71A C72G C114U stands -4.69; under G71U U130A, 0.232.
On to C72A C82G C115A C123A, for which the “polymerase ribozyme fitness (log ratio)” value was -1.36.
As to C70U U78C C80A C97U U129A, the “polymerase ribozyme fitness (log ratio)” value is -5.63.
Turning to C70U C80U U96A U106C, the “polymerase ribozyme fitness (log ratio)” value was -4.08.
Take C72A U92A A119G G127C: the “polymerase ribozyme fitness (log ratio)” value is -1.04.
With G69U U129G, the “polymerase ribozyme fitness (log ratio)” value is -1.02.
The value for C72G U130G was -1.24; that for C72G G110C was -2.42; that for C70U A118U C123A U130C was -0.647.
The value for G69U U133A was -0.00372.
For the variant C70A G71C, the “polymerase ribozyme fitness (log ratio)” value was -4.68.
Under G71C U81C U129C U130A stands -3.37; under C70A C82A U92C, -3.72.
Regarding G71A C124U, the “polymerase ribozyme fitness (log ratio)” value turned out to be 1.42.
Under C70A G113A stands -2.41; under C70A G113U, -2.82; under C70G C98U, -2.99.
As to G71C C73U C79G A90U, the “polymerase ribozyme fitness (log ratio)” value is -6.83.
On to C72G A100U, for which the “polymerase ribozyme fitness (log ratio)” value is -0.592.
Under C72A G107U stands -3.81; under C70U C104U U130G, -0.752.
Take G71U A91U U96C: the “polymerase ribozyme fitness (log ratio)” value is -3.7.
As for C72U A108G, the “polymerase ribozyme fitness (log ratio)” value is -1.96.
For the variant G71A U130C, the “polymerase ribozyme fitness (log ratio)” value stood at 0.53.
The value for G69U C115A G120A was 0.825.
Consider G71A A83U C115U C123G G135U, for which the “polymerase ribozyme fitness (log ratio)” value is -4.34.
The value for C70A U106A was -1.51.
The value for C72G A90U was -1.11.
Under C72A C82A C97G C114G stands -5.93; under G69U C114U U133A, -1.47.
Consider G71U U92A G93U, for which the “polymerase ribozyme fitness (log ratio)” value was -3.61.
On to G71A A84C, for which the “polymerase ribozyme fitness (log ratio)” value is -0.48.
Under C70U U106A stands -0.205; under C70G U78A, -2.44; under G71U C99U U129A, -5.39.
G71A U116A: the “polymerase ribozyme fitness (log ratio)” value is -3.85.
With G71A U116C, the “polymerase ribozyme fitness (log ratio)” value is -1.26.
Under G69U U96G stands -0.302; under C70A U78C C102U, -4.3; under G71U G93A C104U, -0.466.
Regarding G71A C82A, the “polymerase ribozyme fitness (log ratio)” value was -1.72.
Under G71C G113A stands -1.54.
The value for G71A C123A was -0.22; that for C70G A111U was -5.55; that for C70G A111C was -3.24.
For the variant C72G C79G U133A, the “polymerase ribozyme fitness (log ratio)” value is -1.07.
Under C70G C73A stands -4.66.
The value for C72A A75C U87G C102A U116A C124U U130A was -5.54; that for G71U A83U was -0.358.
Under G69U G110U stands 0.852; under G69U G110C, -2.61; under C72A C82G A91C G93C, -3.15.
On to G71C C85U, for which the “polymerase ribozyme fitness (log ratio)” value was -2.23.
The value for G71C C85A was -3.19; that for G71A A105U was -3.04.
As to G71C C102U, the “polymerase ribozyme fitness (log ratio)” value was -3.11.
Under G71A G127A stands -2.33; under G69U C104G U133G, -5.17.
Under G71C G77C C114G U116G stands -5.32; under C70U A103U G120C U131C, -5.74.
With C72G A83G C115A, the “polymerase ribozyme fitness (log ratio)” value is -4.27.
On to G69U G128A, for which the “polymerase ribozyme fitness (log ratio)” value is -1.19.
The value for C70G C123G was -0.392; that for G71U C114G was -2.81.
The value for G71C C124G G128U was -1.25.
The value for G71A C89G was -2.03; that for G71A G117A was -1.44.
Regarding C72U C88G A90C A91G, the “polymerase ribozyme fitness (log ratio)” value is -4.6.
With C70A C80G C82G, the “polymerase ribozyme fitness (log ratio)” value is -7.42.
The value for C72U A84U C101U was -0.839; that for C70U A83U was -0.296.
On to C70U C76U U106C U133G, for which the “polymerase ribozyme fitness (log ratio)” value is -1.64.
Under G71A A119G stands -0.102; under C72A G135C, -0.133; under C72U C79G G113A, -4.23.
Regarding C70U C80U, the “polymerase ribozyme fitness (log ratio)” value is -0.851.
In the case of C70U C102U U132A, the “polymerase ribozyme fitness (log ratio)” value is -2.52.
The value for G71U G120C was 0.378; that for C70A A84U U87A was -2.24; that for C72A G93C C102A U106A G110A U125A G127A was -6.51.
Consider C70U C104G, for which the “polymerase ribozyme fitness (log ratio)” value is -7.05.
The value for C70G C85A C123U U130A U133C was -3.14.
As to C72G G122A, the “polymerase ribozyme fitness (log ratio)” value was -1.
Take C72A C89A U106A: the “polymerase ribozyme fitness (log ratio)” value is -2.09.
The value for G71C C124U was 0.16; that for C72A G110A C115A was -2.51; that for C70G G113U was -4.42.
On to C72A C98A, for which the “polymerase ribozyme fitness (log ratio)” value was -4.32.
Consider G71A C94U U96A, for which the “polymerase ribozyme fitness (log ratio)” value was -2.05.
Under C70U G117U A118U U130C stands -3.8; under G69U C123A, 1.34.
With C72G U132A, the “polymerase ribozyme fitness (log ratio)” value was -0.151.
The value for C72G C124G was 1.51; that for C72G C124A was 1.03.
Under C70G A103U G120A A121C C123U stands -5.54; under G71C A75G, -0.0431.
The value for G69U G127A U131A was -2.75; that for G71U U78C C98U A119U was -1.19; that for G71U G128U was -2.61.
For G69U U116A, the “polymerase ribozyme fitness (log ratio)” value was -1.65.
Under G71C G113A G128A stands -3.16.
For G71C C85U U92C, the “polymerase ribozyme fitness (log ratio)” value was -4.52.
As for G71U C124U, the “polymerase ribozyme fitness (log ratio)” value stood at 1.13.
On to G71C U87A C123A, for which the “polymerase ribozyme fitness (log ratio)” value was -2.66.
With C70U C72U A95C A111U, the “polymerase ribozyme fitness (log ratio)” value was -5.58.
Regarding C70U A91C C101U U112A U129C, the “polymerase ribozyme fitness (log ratio)” value is -6.24.
Under C72A G93A C98U U125G stands -1.8; under C72A A90U C101A G122A, -3.86.
With C72U C79G G113C A118U, the “polymerase ribozyme fitness (log ratio)” value is -5.9.
For the variant G71A U129G, the “polymerase ribozyme fitness (log ratio)” value was -2.44.
As for C70U A111G G120C, the “polymerase ribozyme fitness (log ratio)” value is -4.93.
In the case of G71C C104A, the “polymerase ribozyme fitness (log ratio)” value is -3.63.
Take C72G C80U: the “polymerase ribozyme fitness (log ratio)” value was -0.861.
Under C70U G128A stands -2.28.
The value for C72A U112C G127C was 0.93.
The value for C72U A74U U81C was -0.388.
Turning to G71U C82A, the “polymerase ribozyme fitness (log ratio)” value is -1.91.
Under C70G C89U stands -2.75.
The value for C70A A105C G120C was -5.66; that for C72G C73U G128U was -3.92; that for C70U U78G U116G was -2.23.
With C70G G135A, the “polymerase ribozyme fitness (log ratio)” value is -3.36.
The value for G71A C99U was -3.17; that for C70G G127U was -3.25; that for C70G U130G was -4.08.
Under C70U C98U stands -1.16; under C70G A111G G135U, -4.58.
The value for C72G U92A was -3.94; that for C72G U92G was -3.48.
Take G71U G117A: the “polymerase ribozyme fitness (log ratio)” value is -1.51.
Under C70U U116A stands -3.33; under C70A C124U, -0.369; under C70A C124A, -0.104.
Under G71A A83G U133G stands -2.31; under G71U U96C, -0.38.
Under C70G C85A stands -4.06.

These data come from the RNAGym collection of RNA variant scans (doi:10.1073/pnas.2313332121).
